Data on twelve molecules can be found in patent US20170067045A1 (Bicycle, published 2017).

Test [1] addresses T1, MDM2 (res 2-125) (UniProt Q00987 2-125).
T1 construct: range 2-125; Titrant in the fluorescence anisotropy experiments
Put plainly: fluorescence anisotropy titration, excitation 295 nm, 23 C, PBS, 5 mM DTT.
Method: (§1) Titration experiments were run on a Horiba Jobin Yvon fluorimeter equipped with the Hamilton Microlab titrator controlled by laboratory software. The λₑₓ and λₑₘ used were 295 nm and 350 nm, respectively. The slit widths for excitation and emission were 5 nm and 15 nm and the integration time 1 Os was used for each measurement. […] The experiments were performed at 23° C. in PBS, 5 mM DTT. […] Titration data were analyzed with a standard 1:1 binding model by using the quadratic solution to the equilibrium Kd=[A][B]/[AB]. […] The fitting equation contained an extra term to account for linear drift.

Test [2] deals with T1, MDM2 (res 2-125). As to the kind of experiment: fluorescence anisotropy titration (intrinsic Trp fluorescence), 23 C, PBS, 5 mM DTT. Background: Polarisation of emitted light reports the rotation of a fluorescent probe.
Method: as §1
The target in another test is kallikrein (UniProt P03952 20-638, limits assumed). Put plainly: cell-based or functional assay.
For test [3], the target named is T1, MDM2 (res 2-125). Put plainly: fluorescence anisotropy titration, excitation 280 nm, 23 C, PBS, 5 mM DTT.
In test [4] the target is T1, MDM2 (res 2-125). As to the kind of experiment: fluorescence anisotropy.

*1 amine or outer side, *2 acyl side, *3 side chain or, on linkers, in order; H or OH if unused. Bridges are numbered along the chain shown (N, C = ends). Where no end group is shown, it is not given here. tris(bromomethyl)mesitylene = scaffold as named in the source, Cc1c(C[*:1])c(C)c(C[*:3])c(C)c1C[*:2]; THME(IAc3) = trishydroxymethylethane trisiodoacetate, CC(COC(=O)C[*:1])(COC(=O)C[*:2])COC(=O)C[*:3]; TBMB = c1c(C[*:1])cc(C[*:3])cc1C[*:2]

T1 sequence (Q00987 2-125 limits assumed): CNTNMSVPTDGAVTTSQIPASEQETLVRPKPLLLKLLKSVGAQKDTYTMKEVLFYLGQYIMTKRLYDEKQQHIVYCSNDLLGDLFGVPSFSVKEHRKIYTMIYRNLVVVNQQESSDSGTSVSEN
kallikrein, sequence (P03952 20-638 limits assumed): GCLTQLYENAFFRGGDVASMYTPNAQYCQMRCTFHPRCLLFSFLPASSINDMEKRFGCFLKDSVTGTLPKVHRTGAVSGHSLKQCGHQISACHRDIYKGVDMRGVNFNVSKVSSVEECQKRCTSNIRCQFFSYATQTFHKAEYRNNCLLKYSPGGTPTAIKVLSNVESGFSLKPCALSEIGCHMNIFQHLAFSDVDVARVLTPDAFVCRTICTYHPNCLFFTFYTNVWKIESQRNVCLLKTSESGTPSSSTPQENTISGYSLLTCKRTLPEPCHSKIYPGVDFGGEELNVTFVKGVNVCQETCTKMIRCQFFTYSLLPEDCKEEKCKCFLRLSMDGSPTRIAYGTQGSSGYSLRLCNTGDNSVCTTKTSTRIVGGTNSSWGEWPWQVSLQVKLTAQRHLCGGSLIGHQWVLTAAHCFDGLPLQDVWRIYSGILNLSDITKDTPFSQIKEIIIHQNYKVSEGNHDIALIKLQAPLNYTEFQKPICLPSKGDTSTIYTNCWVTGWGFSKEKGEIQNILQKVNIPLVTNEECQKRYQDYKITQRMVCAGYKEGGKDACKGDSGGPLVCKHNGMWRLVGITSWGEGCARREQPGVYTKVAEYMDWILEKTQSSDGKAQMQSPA

B1: PEP10 synthetic peptide conjugated with TBMB (peptide)
peptide: H-SCELWNPKCRLSPFECKG-OH
modifications: linker 2-9-16 via TBMB
notes: The anisotropy paragraph says only 'peptides 10, 48'; also called peptide 10
B1: the Kd (as a rule, the concentration at which binding is half-saturated) is 267 nM with MDM2 (res 2-125) [1] and 250 to 750 nM with MDM2 (res 2-125) [2].

As to ACSDRFRNMPADEALCG (both cysteines and the single methionine conjugated to TBMB) [PK15 with central cysteine altered to methionine, TBMB conjugate, second of two HPLC products], the “IC50 of inhibition of kallikrein activity” value with kallikrein was > 10000 nM.

B2: oxidized PK15-TBMB (sulphoxides, +3 oxygen atoms) (peptide)
peptide: ACSDRFRNCPADEALCG
modifications: linker 2-9-16 via TBMB; also: thioether links to TBMB oxidised to sulphoxides (stereoisomer mixture)
As to B2, the “IC50 of inhibition of kallikrein (Z-Phe-Arg-AMC substrate, fluorescence)” value with kallikrein is ~2400 nM.

As for ACSDRFRNCPADEALCG (linker 2-9-16 via TBMB) [PK15-TBMB], in the test with kallikrein, the “IC50 of inhibition of kallikrein (Z-Phe-Arg-AMC substrate, fluorescence)” value is 13 nM.

ACSDRFRNCPADEALCG (linker 2-9-16 via tris(bromoethyl)mesitylene) [PK15 conjugated with tris(bromoethyl)mesitylene]: the “IC50 of inhibition of kallikrein (Z-Phe-Arg-AMC substrate, fluorescence)” value with kallikrein is ~400 nM.

B3: PEP48 synthetic peptide conjugated with TBMB (peptide)
peptide: H-SCVRFGWTCDNSWHGCKG-OH
modifications: linker 2-9-16 via TBMB
notes: The anisotropy paragraph says only 'peptides 10, 48'; also called peptide 48
Turning to B3, the values for the Kd in the test with MDM2 (res 2-125) [3], with MDM2 (res 2-125) [1] and with MDM2 (res 2-125) [2] were 760 nM, 567 nM and 250 to 750 nM, respectively.

B4: PEP48-3s1 conjugated with THME(IAc3), HPLC peak / stereoisomer with affinity 1600 nM (peptide)
peptide: SDDCVRFGWTCPTVMCG
modifications: linker 4-11-16 via THME(IAc3); also: one of two stereoisomers (HPLC peaks), not assigned
notes: The other of two HPLC peaks of identical mass (expected stereoisomers); also called PEP48-3s1-THME(IAc3)
In the case of B4, in the test with MDM2 (res 2-125) [4], the affinity, expressed as Kd, was 1600 nM.

Turning to ACSDRFRNCPADEALCG (linker 2-9-16 via tris(bromomethyl)mesitylene) [PK15 conjugated with tris(bromomethyl)mesitylene], the “IC50 of inhibition of kallikrein (Z-Phe-Arg-AMC substrate, fluorescence)” value in the test with kallikrein stood at 150 nM.

B5: PEP48-3s1 conjugate (TBMB) (peptide)
peptide: SDDCVRFGWTCPTVMCG
modifications: linker 4-11-16 via TBMB
notes: PEP48 derivative with the second loop re-selected
B5 displayed a Kd in the test with MDM2 (res 2-125) [4] of 27 to 100 nM.

With ACSDRFRNCPADEALCG (linker 2-9-16 via TBMB; also: thioether links to TBMB oxidised to sulphones) [oxidized PK15-TBMB (sulphone)], in the test with kallikrein, the “IC50 of inhibition of kallikrein (Z-Phe-Arg-AMC substrate, fluorescence)” value stood at 1300 nM.

ACSDRFRNMPADEALCG (both cysteines and the single methionine conjugated to TBMB) [PK15 with central cysteine altered to methionine, TBMB conjugate, first of two HPLC products]: the “IC50 of inhibition of kallikrein activity” value in the test with kallikrein was > 10000 nM.

B6: PEP48-3s1 conjugated with THME(IAc3), HPLC peak / stereoisomer with affinity 640 nM (peptide)
peptide: SDDCVRFGWTCPTVMCG
modifications: linker 4-11-16 via THME(IAc3); also: one of two stereoisomers (HPLC peaks), not assigned
notes: One of two HPLC peaks of identical mass (expected stereoisomers); also called PEP48-3s1-THME(IAc3)
With B6, the Kd with MDM2 (res 2-125) [4] amounted to 640 nM. This counts as sub-micromolar.
